Patent publication US6528312B1, “Use of G-actin for improving transfection of a polynucleotide into a cell” (Transgene S.A., priority 1998, dated 2003)

B1: IL-10: human recombinant IL-10 (Sigma) (protein, UniProt P22301 19-178, looked up)
Interleukin-10: SPGQGTQSENSCTHFPGNLPNMLRDLRDAFSRVKTFFQMKDQLDNLLLKESLLEDFKGYLGCQALSEMIQFYLEEVMPQAENQDPDIKAHVNSLGENLKTLRLRLRRCHRFLPCENKSKAVEQVKNAFNKLQEKGIYKAMSEFDIFINYIEAYMTMKIRN

Tests used:
[1] = tested on: tibialis anterior muscles of mdx mice; assay: Intramuscular transfer of dystrophin plasmid pTG11025, dystrophin immunohistochemistry; format: in vivo, mouse; conditions: pTG11025 i.m. with adjuvant (IL-10 0.1 μg, DMSO 10% final, G-actin 10 μg), notexin 3 days before, 7 days after injection; mean +/- sem
Method: (§1) Plasmids are prepared according to Bischoff et al. (Analytical Biochemistry 254 (1997), 69-81). The tested interleukin-10s were mixed with the plasmid preparation (pTG11033: CMV promoter, β-globin intron, luciferase cassette; pTG11025: CMV promoter, β-globin intron, dystrophin cassette; both diluted in 0.9% NaCl), prior to intramuscular injection. 25 μg of plasmid are injected per muscle in 5 to 10 week-old C57BI/10 or mdx mice. The 2 tibialis anterior (right and left) muscles were injected (each muscle was considered as a sample, which means number of samples per condition=2×number of mice per condition).
(§2) One week after injection of the composition, mice were killed and the tibialis anterior muscles were retrieved and frozen. Based on the injected vector, either luciferase activity was determined in muscle extracts, or dystrophin expression was evaluated by immunohistochemistry.
Muscle samples were frozen in liquid nitrogen-cooled isopentane and stored at −80° C. […]
In a second experiment mdx mice were 3 times injected intramuscularly with pTG11025 (dystrophin) plus DMSO, G-actin and IL-10 after notexin-induced muscle regeneration. Plasmid-adjuvant injections were repeated 3 times in raw on a daily basis and dystrophin expression (immunohistochemistry) was evaluated 7 days after the last injection. […]

[2] = tested on: tibialis anterior muscles of C57BL/10 mice; assay: Intramuscular transfection of luciferase plasmid pTG11033, luciferase activity of injected muscles; format: in vivo, mouse; conditions: IL-10 0.01 and 0.1 μg + 25 μg pTG11033 per muscle, dose-dependent
Method: as §1, §2
Luciferase activity was quantified using a conventional measurement kit (Luciferase Assay System, Promega). […] Luciferase activity was expressed as number of RLU emitted per minute.
Proteins were measured on 10 μl samples using a VCA Protein Assay Kit (Pierce). […]
One week after injection of the vectors, the mice were killed and the tibialis anterior muscles were retrieved and frozen. Luciferase activity was determined on muscle extracts. […]

Molecule | Number of dystrophin-positive fibers per cryosection [1] | increase of luciferase expression [2]
C[S+](C)[O-] [DMSO, dimethylsulfoxide] | 37.8 +/− 5.5 | 
B1 | 21.7 +/− 1.9 | 3 factor
